In the supplement of paper PMC10567573:

B1: MNAT1 (parent)
chain: LEEALYEYQPLQIETYGPHVPELE

Variants of: B1
Assay: protein stability index of a GFP-peptide fusion (GPS, HEK-293T) (PSI 1-6); higher = more stable
Conditions: c terminus: a fixed tail appended
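Further: lentivirally expressed fusions sorted by FACS into six bins by GFP to DsRed ratio, PSI derived from sequencing read proportions per bin multiplied by bin number.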

Which protein stability index does the source give for LEEALYEYQPLQIETYGIHVPELE here?
Its protein stability index is 2.04.

For LEEALYEYQPLQIETYGYHVPELE, which protein stability index is on record?
Its protein stability index is 2.97.

With LEEALYEYQPLQIETYGTHVPELE as the variant, how does the protein stability index read?
The protein stability index was 3.02.

With LEEALYEYQPLQIETYGNHVPELE as the variant, how does the protein stability index read?
The protein stability index was 3.31.

Which protein stability index does the source give for LEEALYEYQPLQIETYGMHVPELE here?
The protein stability index was 2.01.

Which protein stability index does the source give for LEEALYEYQPLQIETYGEHVPELE here?
The protein stability index was 2.15.

With LEEALYEYQPLQIETYGCHVPELE as the variant, how does the protein stability index read?
The protein stability index was 1.91.

With LEEALYEYQPLQIETYGWHVPELE as the variant, how does the protein stability index read?
Its protein stability index is 1.18.

Which protein stability index does the source give for LEEALYEYQPLQIETYGDHVPELE here?
Its protein stability index is 2.8.

With LEEALYEYQPLQIETYGRHVPELE as the variant, how does the protein stability index read?
Its protein stability index is 3.78.

With LEEALYEYQPLQIETYGAHVPELE as the variant, how does the protein stability index read?
Its protein stability index is 2.74.

For LEEALYEYQPLQIETYGHHVPELE, which protein stability index is on record?
The protein stability index was 2.81.

For LEEALYEYQPLQIETYGVHVPELE, which protein stability index is on record?
Its protein stability index is 2.39.

For LEEALYEYQPLQIETYGSHVPELE, which protein stability index is on record?
The protein stability index was 2.6.

For LEEALYEYQPLQIETYGQHVPELE, which protein stability index is on record?
The protein stability index was 3.3.

For LEEALYEYQPLQIETYGLHVPELE, which protein stability index is on record?
Its protein stability index is 2.16.

Which protein stability index does the source give for LEEALYEYQPLQIETYGGHVPELE here?
The protein stability index was 2.96.

Which protein stability index does the source give for LEEALYEYQPLQIETYGKHVPELE here?
The protein stability index was 4.11.

For LEEALYEYQPLQIETYGFHVPELE, which protein stability index is on record?
The protein stability index was 2.17.

With LEEALYEYQPLQIETYGPAVPELE as the variant, how does the protein stability index read?
The protein stability index was 2.89.

Which protein stability index does the source give for LEEALYEYQPLQIENYGPHVPELE here?
The protein stability index was 4.13.

For LEEALYEYQPLQIEPYGPHVPELE, which protein stability index is on record?
Its protein stability index is 4.55.

Which protein stability index does the source give for LEEALYEYQPLQIERYGPHVPELE here?
Its protein stability index is 4.41.

For LEEALYEYQPLQIEYYGPHVPELE, which protein stability index is on record?
Its protein stability index is 2.01.

With LEEALYEYQPLQIEAYGPHVPELE as the variant, how does the protein stability index read?
Its protein stability index is 1.99.

With LEEALYEYQPLQIESYGPHVPELE as the variant, how does the protein stability index read?
Its protein stability index is 3.54.

Which protein stability index does the source give for LEEALYEYQPLQIEIYGPHVPELE here?
The protein stability index was 1.61.

With LEEALYEYQPLQIEFYGPHVPELE as the variant, how does the protein stability index read?
The protein stability index was 1.75.

For LEEALYEYQPLQIEWYGPHVPELE, which protein stability index is on record?
Its protein stability index is 2.2.

With LEEALYEYQPLQIEQYGPHVPELE as the variant, how does the protein stability index read?
The protein stability index was 4.09.

With LEEALYEYQPLQIEEYGPHVPELE as the variant, how does the protein stability index read?
The protein stability index was 4.43.

Which protein stability index does the source give for LEEALYEYQPLQIECYGPHVPELE here?
The protein stability index was 2.18.

Which protein stability index does the source give for LEEALYEYQPLQIEGYGPHVPELE here?
The protein stability index was 4.13.

With LEEALYEYQPLQIELYGPHVPELE as the variant, how does the protein stability index read?
The protein stability index was 1.82.

Which protein stability index does the source give for LEEALYEYQPLQIEDYGPHVPELE here?
Its protein stability index is 4.73.

With LEEALYEYQPLQIEHYGPHVPELE as the variant, how does the protein stability index read?
Its protein stability index is 3.91.

Which protein stability index does the source give for LEEALYEYQPLQIEVYGPHVPELE here?
The protein stability index was 1.7.

Which protein stability index does the source give for LEEALYEYQPLQIEKYGPHVPELE here?
The protein stability index was 4.14.

For LEEALYEYQPLQIEMYGPHVPELE, which protein stability index is on record?
Its protein stability index is 2.32.

With LEEALYEYQPLQIETSGPHVPELE as the variant, how does the protein stability index read?
Its protein stability index is 4.27.

Which protein stability index does the source give for LEEALYEYQPLQIETWGPHVPELE here?
The protein stability index was 2.49.

Which protein stability index does the source give for LEEALYEYQPLQIETLGPHVPELE here?
Its protein stability index is 4.15.

With LEEALYEYQPLQIETFGPHVPELE as the variant, how does the protein stability index read?
The protein stability index was 3.49.

Which protein stability index does the source give for LEEALYEYQPLQIETDGPHVPELE here?
Its protein stability index is 5.37.

For LEEALYEYQPLQIETRGPHVPELE, which protein stability index is on record?
Its protein stability index is 3.19.

With LEEALYEYQPLQIETCGPHVPELE as the variant, how does the protein stability index read?
Its protein stability index is 3.84.

For LEEALYEYQPLQIETGGPHVPELE, which protein stability index is on record?
Its protein stability index is 4.52.

Which protein stability index does the source give for LEEALYEYQPLQIETKGPHVPELE here?
The protein stability index was 4.34.

Which protein stability index does the source give for LEEALYEYQPLQIETMGPHVPELE here?
Its protein stability index is 3.79.

For LEEALYEYQPLQIETAGPHVPELE, which protein stability index is on record?
The protein stability index was 4.54.

For LEEALYEYQPLQIETQGPHVPELE, which protein stability index is on record?
The protein stability index was 4.33.

For LEEALYEYQPLQIETTGPHVPELE, which protein stability index is on record?
The protein stability index was 4.09.

For LEEALYEYQPLQIETVGPHVPELE, which protein stability index is on record?
The protein stability index was 3.19.

With LEEALYEYQPLQIETIGPHVPELE as the variant, how does the protein stability index read?
Its protein stability index is 3.61.

Which protein stability index does the source give for LEEALYEYQPLQIETEGPHVPELE here?
Its protein stability index is 4.13.

Which protein stability index does the source give for LEEALYEYQPLQIETNGPHVPELE here?
The protein stability index was 4.7.

With LEEALYEYQPLQIETPGPHVPELE as the variant, how does the protein stability index read?
Its protein stability index is 4.94.

Which protein stability index does the source give for LEEALYEYQPLQIETHGPHVPELE here?
Its protein stability index is 3.15.

For LEEALYEYQPLQIFTYGPHVPELE, which protein stability index is on record?
Its protein stability index is 2.01.

With LEEALYEYQPLQINTYGPHVPELE as the variant, how does the protein stability index read?
Its protein stability index is 2.61.

For LEEALYEYQPLQIWTYGPHVPELE, which protein stability index is on record?
Its protein stability index is 1.6.

With LEEALYEYQPLQIGTYGPHVPELE as the variant, how does the protein stability index read?
The protein stability index was 3.31.

Which protein stability index does the source give for LEEALYEYQPLQIQTYGPHVPELE here?
The protein stability index was 2.19.

For LEEALYEYQPLQISTYGPHVPELE, which protein stability index is on record?
The protein stability index was 2.25.

With LEEALYEYQPLQIKTYGPHVPELE as the variant, how does the protein stability index read?
The protein stability index was 1.75.

For LEEALYEYQPLQIDTYGPHVPELE, which protein stability index is on record?
Its protein stability index is 2.68.

For LEEALYEYQPLQIRTYGPHVPELE, which protein stability index is on record?
Its protein stability index is 1.93.

For LEEALYEYQPLQICTYGPHVPELE, which protein stability index is on record?
Its protein stability index is 2.12.

For LEEALYEYQPLQIYTYGPHVPELE, which protein stability index is on record?
Its protein stability index is 1.87.

Which protein stability index does the source give for LEEALYEYQPLQITTYGPHVPELE here?
Its protein stability index is 2.32.

Which protein stability index does the source give for LEEALYEYQPLQIPTYGPHVPELE here?
Its protein stability index is 4.22.

For LEEALYEYQPLQIHTYGPHVPELE, which protein stability index is on record?
Its protein stability index is 1.8.

For LEEALYEYQPLQIVTYGPHVPELE, which protein stability index is on record?
The protein stability index was 1.82.

Which protein stability index does the source give for LEEALYEYQPLQIMTYGPHVPELE here?
Its protein stability index is 2.47.

Which protein stability index does the source give for LEEALYEYQPLQIITYGPHVPELE here?
The protein stability index was 1.81.

For LEEALYEYQPLQILTYGPHVPELE, which protein stability index is on record?
Its protein stability index is 2.01.

With LEEALYEYQPLQIETYTPHVPELE as the variant, how does the protein stability index read?
Its protein stability index is 2.5.

With LEEALYEYQPLQIETYMPHVPELE as the variant, how does the protein stability index read?
The protein stability index was 1.75.

For LEEALYEYQPLQIETYVPHVPELE, which protein stability index is on record?
Its protein stability index is 2.12.

With LEEALYEYQPLQIETYLPHVPELE as the variant, how does the protein stability index read?
Its protein stability index is 1.85.

With LEEALYEYQPLQIETYIPHVPELE as the variant, how does the protein stability index read?
The protein stability index was 2.13.

For LEEALYEYQPLQIETYQPHVPELE, which protein stability index is on record?
The protein stability index was 2.53.

Which protein stability index does the source give for LEEALYEYQPLQIETYPPHVPELE here?
The protein stability index was 2.69.

With LEEALYEYQPLQIETYFPHVPELE as the variant, how does the protein stability index read?
Its protein stability index is 2.35.

With LEEALYEYQPLQIETYDPHVPELE as the variant, how does the protein stability index read?
Its protein stability index is 2.21.

Which protein stability index does the source give for LEEALYEYQPLQIETYNPHVPELE here?
Its protein stability index is 2.99.

For LEEALYEYQPLQIETYEPHVPELE, which protein stability index is on record?
The protein stability index was 3.14.

With LEEALYEYQPLQIETYWPHVPELE as the variant, how does the protein stability index read?
The protein stability index was 1.74.

With LEEALYEYQPLQIETYAPHVPELE as the variant, how does the protein stability index read?
Its protein stability index is 2.35.

For LEEALYEYQPLQIETYSPHVPELE, which protein stability index is on record?
Its protein stability index is 2.27.

Which protein stability index does the source give for LEEALYEYQPLQIETYKPHVPELE here?
Its protein stability index is 2.88.

With LEEALYEYQPLQIETYYPHVPELE as the variant, how does the protein stability index read?
Its protein stability index is 1.59.

For LEEALYEYQPLQIETYCPHVPELE, which protein stability index is on record?
The protein stability index was 1.98.

Which protein stability index does the source give for LEEALYEYQPLQIETYHPHVPELE here?
The protein stability index was 3.14.
